Target: Innovin, lyophilized recombinant human tissue factor combined with phospholipids (human) (UniProt P13726)
Assay: cell-based or functional assay

Innovin, lyophilized recombinant human tissue factor combined with phospholipids (human), sequence (P13726 33-295 limits assumed): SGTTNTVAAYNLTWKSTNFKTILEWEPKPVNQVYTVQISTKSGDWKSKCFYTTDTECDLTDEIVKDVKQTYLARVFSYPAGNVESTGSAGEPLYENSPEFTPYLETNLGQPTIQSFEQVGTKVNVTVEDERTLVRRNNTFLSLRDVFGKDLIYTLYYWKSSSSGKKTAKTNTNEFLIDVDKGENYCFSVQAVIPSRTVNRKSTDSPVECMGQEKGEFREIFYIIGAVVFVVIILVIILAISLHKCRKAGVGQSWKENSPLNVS

Question: How did the T½ Max (seconds), coagulation of human plasma turn out when “CNTO 860, humanized form of the antibody 5G9, human IgG1/Kappa” was run?
Answer: > 900 s

Question: And the coagulation time?
Answer: > 1800 s

Source: patent US20120237528A1
